Molecular target: T1, FITC-casein (FITC label (FITC-casein))
T1 chain: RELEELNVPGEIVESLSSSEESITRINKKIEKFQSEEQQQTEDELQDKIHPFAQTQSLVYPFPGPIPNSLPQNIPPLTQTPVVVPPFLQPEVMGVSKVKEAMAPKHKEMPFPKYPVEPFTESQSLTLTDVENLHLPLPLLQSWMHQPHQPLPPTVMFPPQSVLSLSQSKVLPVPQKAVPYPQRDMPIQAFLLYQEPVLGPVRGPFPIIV
Experiment: FP; competition: Ydj1 dissociating FITC-casein from Hsp104 R366E, ATPγS

B1: Ydj1 (natural protein)
chain: MVKETKFYDILGVPVTATDVEIKKAYRKCALKYHPDKNPSEEAAEKFKEASAAYEILSDPEKRDIYDQFGEDGLSGAGGAGGFPGGGFGFGDDIFSQFFGAGGAQRPRGPQRGKDIKHEISASLEELYKGRTAKLALNKQILCKECEGRGGKKGAVKKCTSCNGQGIKFVTRQMGPMIQRFQTECDVCHGTGDIIDPKDRCKSCNGKKVENERKILEVHVEPGMKDGQRIVFKGEADQAPDVIPGDVVFIVSERPHKSFKRDGDDLVYEAEIDLLTAIAGGEFALEHVSGDWLKVGIVPGEVIAPGMRKVIEGKGMPIPKYGGYGNLIIKFTIKFPENHFTSEENLKKLEEILPPRIVPAIPKKATVDECVLADFDPAKYNRTRASRGGANYDSDEEEQGGEGVQCASQ
B1 gave an IC50 of ~20 µM.

Source: paper doi:10.1101/2024.04.26.591398 (2024)
